Several values for one entry are separate records, joined by “and”; a condition that tells them apart may be missing. Equal values may be shown once.
Legend:
[1] = target: T1, hAng-2-WT (Homo sapiens, UniProt O15123); experiment: SPR binding to full-length wild-type human Ang-2 (preferential binding)
T1 construct: wild-type human Ang-2 (hAng-2-WT)
T1 sequence (O15123 19-496): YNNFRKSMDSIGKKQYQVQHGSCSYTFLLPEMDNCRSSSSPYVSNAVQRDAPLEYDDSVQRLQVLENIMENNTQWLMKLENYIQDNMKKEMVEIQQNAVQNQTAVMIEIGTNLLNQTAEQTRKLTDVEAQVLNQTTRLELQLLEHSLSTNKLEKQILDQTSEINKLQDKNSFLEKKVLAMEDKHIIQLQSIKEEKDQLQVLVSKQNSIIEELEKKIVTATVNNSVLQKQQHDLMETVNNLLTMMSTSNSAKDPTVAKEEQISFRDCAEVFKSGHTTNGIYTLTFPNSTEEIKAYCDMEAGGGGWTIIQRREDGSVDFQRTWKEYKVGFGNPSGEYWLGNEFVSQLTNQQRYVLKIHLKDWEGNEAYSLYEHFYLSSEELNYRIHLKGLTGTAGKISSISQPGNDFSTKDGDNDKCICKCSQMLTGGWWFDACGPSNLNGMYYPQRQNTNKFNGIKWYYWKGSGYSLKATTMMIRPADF
Protocol: Binding experiments (plasmon resonance assays) were conducted to ascertain whether selected antibodies bound to both Ang-2 and Ang-1 or if they preferentially bound to Ang-2 only. Each selected antibody or control construct was captured at a flow rate of 40 μL/min for 1 minute on a goat anti-human IgG polyclonal antibody surface created through direct chemical coupling to a BIACORE™ chip to form a captured antibody surface. Full-length wild-type human Ang-1 or Ang-2 at a concentration of 25 nM or 0.78 nM were injected over the captured antibody surface at a flowrate of 60 μL/min for 3 minutes, and antigen-antibody dissociation was monitored in real time for 20 minutes at either 25° C. or 37° C.

[2] = target: T2, hAng-1-WT binding to hTie-2-mFc (Homo sapiens, UniProt Q15389); experiment: Biosensor SPR blocking of hAng-1-WT binding to hTie-2-mFc-ecto surface; type: biochemical; conditions: for Percent of Neg. Ctrl Binding (hAng-1 WT) / Specific Bound RU (hAng-1 WT): 10 nM hAng-1-WT
T2 sequence (Q15389 20-498 limits assumed): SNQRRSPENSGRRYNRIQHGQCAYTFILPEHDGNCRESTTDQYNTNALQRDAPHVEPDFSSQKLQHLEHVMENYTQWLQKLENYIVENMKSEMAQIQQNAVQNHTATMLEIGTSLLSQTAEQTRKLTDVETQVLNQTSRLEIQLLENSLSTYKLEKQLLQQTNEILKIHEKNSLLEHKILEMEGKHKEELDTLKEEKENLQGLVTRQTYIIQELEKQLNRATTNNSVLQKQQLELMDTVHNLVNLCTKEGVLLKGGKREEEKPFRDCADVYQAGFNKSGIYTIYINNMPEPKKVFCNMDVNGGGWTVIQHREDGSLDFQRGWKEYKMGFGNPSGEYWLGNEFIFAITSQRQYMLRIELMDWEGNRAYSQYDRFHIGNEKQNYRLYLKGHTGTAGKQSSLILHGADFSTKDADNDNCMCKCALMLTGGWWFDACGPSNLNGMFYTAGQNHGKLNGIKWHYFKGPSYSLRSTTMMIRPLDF
Protocol: In an effort to further assess the ability of selected anti-hAng-2 antibodies to block the binding of Ang-1 to Tie-2, a biosensor surface plasmon resonance experiment was conducted. In this experiment, a human Tie-2 full-length extracellular domain construct (hTie-2-mFc-ecto) was amine-coupled on a BIACORE™ chip to create a receptor coated surface. Selected anti-hAng-2 antibodies and control constructs, at 1 μM (100-fold excess over antigen), were premixed with 10 nM of hAng-1-WT, followed by 60 minutes incubation at 25° C. to allow antibody-antigen binding to reach equilibrium to form equilibrated solutions. The equilibrated solutions were injected over the receptor surfaces at 5 μL/min for 5 minutes at 25° C. Changes in resonance units (RU) due to the binding of the hAng-1-WT to hTie-2-mFc were determined. An irrelevant peptibody construct with no binding to hAng-1 was included in this experiment to establish the 0% blocking baseline, and a human Tie-2-mFc construct was used as a positive control for blocking. The amount of Ang-1 bound to Tie-2 following antibody preincubation, expressed as a percentage of the amount of Ang-1 bound to Tie-2 following negative control preincubation, is shown in Table 20. (A greater amount of Ang-1 binding to Tie-2 signifies a lower degree of antibody blocking).
The foregoing experiment was repeated using different amounts of Ang-2 blockers and controls. In particular, a human Tie-2 full-length extracellular domain construct (hTie-2-mFc-ecto) was amine-coupled on a BIACORE™ chip to create a receptor-coated surface. Selected anti-hAng-2 antibodies and control constructs (50 or 150 nM) were mixed with hAng-2-WT (25 nM) followed by 60 minutes incubation at 25° C. to allow antibody-antigen binding to reach equilibrium. The equilibrated solutions were injected over the receptor surfaces at 10 μL/min for 5 minutes at 25° C. To evaluate the ability of the selected anti-hAng-2 antibodies to block Ang-1-WT binding to hTie-2, a similar procedure was followed except the antibodies were tested at three concentrations (50, 100 or 1000 nM) and incubated with 10 nM of hAng-1-WT. Changes in resonance units (RU) due to the binding of the Ang-2-WT or hAng-1-WT to hTie-2-mFc were determined. An irrelevant antibody with no binding to either angiopoietin was included in these experiments to establish the 0% blocking baseline, and a human Tie-2-mFc construct was used as a positive control for blocking. Results are summarized in Tables 21 (hAng-1 applied to a hTie-2 surface) and 22 (hAng-2 applied to a hTie-2 surface).

[3] = 1 μM antibody premixed with 10 nM hAng-1-WT, 25° C.

Substance: H1H685P: human anti-Ang-2 antibody, HCVR/LCVR SEQ ID NOs 18/20; also referred to as mAb1 [Antibody H1H685P]
- kd, binding to hAng-2-WT ([1]; 25° C.): 1.6e-05 s⁻¹ and 8.5e-06 s⁻¹
- kd, binding to hAng-2-WT ([1]; 37° C.): 3.76e-05 s⁻¹ and 2.16e-05 s⁻¹
- Blocking of binding of human Ang-1 to human Tie-2 (in words) [2]: do not significantly block
- Percent of Neg. Ctrl Binding (hAng-1 WT) ([2]; 50 nM antibody or control): 95%
- Specific Bound RU (hAng-1 WT) ([2]; 50 nM antibody or control): 299 RU
- Percent of Neg. Ctrl Binding (hAng-1 WT) ([2]; 100 nM antibody or control): 95%
- Specific Bound RU (hAng-1 WT) ([2]; 100 nM antibody or control): 291 RU
- Percent of Negative Control Binding (hAng-1-WT to Tie-2) [2, 3]: 81%
- RU (average), hAng-1-WT bound to hTie-2-mFc [2, 3]: 137 RU
- Percent of Neg. Ctrl Binding (hAng-1 WT) ([2]; 1000 nM antibody or control): 105%
- Specific Bound RU (hAng-1 WT) ([2]; 1000 nM antibody or control): 289 RU

— patent US9926369B2, “Methods for treating hepatocellular cancer by administering an anti-Ang-2 antibody” (Regeneron Pharmaceuticals, Inc., priority 2009, dated 2018)
